Measurements published in article PMC9084892, “Von Willebrand factor A1 domain stability and affinity for GPIbα are differentially regulated by its O-glycosylated N- and C-linker” (eLife, 2022).

Experiments:
GPIbα (Homo sapiens) = GPIbα (Homo sapiens) (UniProt P07359); details: cited from earlier work
[1] = target: T1, VWF A1 domain construct A1 short (residues 1264-1469) (human, UniProt P04275 1264-1469); experiment: BLI; biotinylated GPIbα on streptavidin sensors, A1 constructs as analyte; 20 mM HEPES pH 7.5, 0.02% Tween-20, 150 mM NaCl; global fit to a single kon and koff; Octet RED384; details: both partners purified
T1 construct: von Willebrand factor, human, A1 domain without the N- and C-linkers, residues 1264-1469, pre-pro-VWF numbering; Both the mammalian and the bacterial methods allow a 1264-1469 construct; If it was made in E. coli, it carried an N-terminal thioredoxin that was cut off with TEV protease; Long-range disulfide Cys1272-Cys1458 is present; source: purified (Ni-NTA, Superdex 200), gel filtered again on …

[2] = target: T2, VWF A1 domain construct A1+OGly+N+C (residues 1238-1489, O-glycosylated) (human, UniProt P04275 1238-1489, O-glycosylated N- and C-linkers); experiment: as above; details: both partners purified
T2 construct: von Willebrand factor, human, A1 domain with the N- and C-linkers, residues 1238-1489, pre-pro-VWF numbering; It extends three residues beyond the bacterial A1+N+C so as to include the O-glycosylated residues Ser-1486 and Thr-1487; also called A1NC

[3] = target: T1, VWF A1 domain construct A1 short …; experiment: ITC; GPIbα (250 uM; 550 uM with A1+OGly+N+C) titrated into A1 (22 uM; 50 uM with A1+OGly+N+C); 150 mM NaCl, 20 mM Tris-HCl pH 7.5, 22°C; MicroCal iTC200; details: both partners purified

For “von Willebrand factor A1 (tethered, high-affinity state) (from UniProt P04275)”, the Kd (GPIbα (Homo sapiens)) is given as 80 nM.

B1: Wild-type GPIbα, residues 1-290 of the mature protein, with biotinylated Avi-tag and His6 tag (domain or fragment)
chain: HPICEVSKVASHLEVNCDKRNLTALPPDLPKDTTILHLSENLLYTFSLATLMPYTRLTQLNLDRCELTKLQVDGTLPVLGTLDLSHNQLQSLPLLGQTLPALTVLDVSFNRLTSLPLGALRGLGELQELYLKGNELKTLPPGLLTPTPKLEKLSLANNNLTELPAGLLNGLENLDTLLLQENSLYTIPKGFFGSHLLPFAFLHGNPWLCNCEILYFRRWLQDNAENVYVWKQGVDVKAMTSNVASVQCDNSDKFPVYKYPGKGCPTLGDEGDTDLYDYYPEEDTEGDKVR
modifications: biotin on the Avi-tag
B1 showed a Kd [1] of 180 nM and a Kd [2] of 9200 nM.

B2: Wild-type GPIbα, residues 1-290 of the mature protein, with His6 tag (no Avi-tag) (domain or fragment)
chain: B1 chain
modifications: Mature 1-290 = precursor 17-306 (signal peptide 1-16). The His6 tag is left out; no Avi-tag or biotin. Expressed in HEK293, so glycosylated and disulfide-bonded.
In the case of B2, the “fold higher affinity of A1 short than of A1+OGly+N+C” value [3] is reported as 39 fold.
